Reference: doi:10.1101/2021.11.08.467681 (bioRxiv, 2021)
Changes are numbered by the printed parent chain. In names and notes the source's numbering stands.

B1: FtsA WT (natural protein)
chain: MIKATDRKLVVGLEIGTAKVAALVGEVLPDGMVNIIGVGSCPSRGMDKGGVNDLESVVKCVQRAIDQAELMADCQISSVYLALSGKHISCQNEIGMVPISEEEVTQEDVENVVHTAKSVRVRDEHRVLHVIPQEYAIDYQEGIKNPVGLSGVRMQAKVHLITCHNDMAKNIVKAVERCGLKVDQLIFAGLASSYSVLTEDERELGVCVVDIGGGTMDIAVYTGGALRHTKVIPYAGNVVTSDIAYAFGTPPSDAEAIKVRHGCALGSIVGKDESVEVPSVGGRPPRSLQRQTLAEVIEPRYTELLNLVNEEILQLQEKLRQQGVKHHLAAGIVLTGGAAQIEGLAACAQRVFHTQVRIGAPLNITGLTDYAQEPYYSTAVGLLHYGKESHLNGEAEVEKRVTASVGSWIKRLNSWLRKEF
B2: FtsA WT(1-405)-6xHis (domain or fragment)
chain: MIKATDRKLVVGLEIGTAKVAALVGEVLPDGMVNIIGVGSCPSRGMDKGGVNDLESVVKCVQRAIDQAELMADCQISSVYLALSGKHISCQNEIGMVPISEEEVTQEDVENVVHTAKSVRVRDEHRVLHVIPQEYAIDYQEGIKNPVGLSGVRMQAKVHLITCHNDMAKNIVKAVERCGLKVDQLIFAGLASSYSVLTEDERELGVCVVDIGGGTMDIAVYTGGALRHTKVIPYAGNVVTSDIAYAFGTPPSDAEAIKVRHGCALGSIVGKDESVEVPSVGGRPPRSLQRQTLAEVIEPRYTELLNLVNEEILQLQEKLRQQGVKHHLAAGIVLTGGAAQIEGLAACAQRVFHTQVRIGAPLNITGLTDYAQEPYYSTAVGLLHYGKESHLNGEAEVEKRVTASV
B3: FtsA R286W (1-405)-6xHis (domain or fragment)
chain: B2 chain with R286W

Target: the molecule itself
Assay: FRET or BRET

| Protein | binding result |
| --- | --- |
| B1 | binds |
| B2 | binds |
| B3 | binds |
